According to paper PMC7755605, “The Interaction of TRAF6 With Neuroplastin Promotes Spinogenesis During Early Neuronal Development” (Frontiers in Cell and Developmental Biology, 2020):

Biological target: T1, N-terminally GST-tagged TRAF6 (mouse, UniProt P70196 1-530)
T1 construct: TNF receptor-associated factor 6 (TRAF6), mouse; amplified by PCR with primers from the start codon to the stop codon; 530 residues by the printed limits of the cc-c construct; also called GST-TRAF6; purified recombinant TRAF6; source: E. coli BL21 (DE3), purified (GST bulk kit); not shown: GST, N-terminal, kept
T1 sequence (looked up): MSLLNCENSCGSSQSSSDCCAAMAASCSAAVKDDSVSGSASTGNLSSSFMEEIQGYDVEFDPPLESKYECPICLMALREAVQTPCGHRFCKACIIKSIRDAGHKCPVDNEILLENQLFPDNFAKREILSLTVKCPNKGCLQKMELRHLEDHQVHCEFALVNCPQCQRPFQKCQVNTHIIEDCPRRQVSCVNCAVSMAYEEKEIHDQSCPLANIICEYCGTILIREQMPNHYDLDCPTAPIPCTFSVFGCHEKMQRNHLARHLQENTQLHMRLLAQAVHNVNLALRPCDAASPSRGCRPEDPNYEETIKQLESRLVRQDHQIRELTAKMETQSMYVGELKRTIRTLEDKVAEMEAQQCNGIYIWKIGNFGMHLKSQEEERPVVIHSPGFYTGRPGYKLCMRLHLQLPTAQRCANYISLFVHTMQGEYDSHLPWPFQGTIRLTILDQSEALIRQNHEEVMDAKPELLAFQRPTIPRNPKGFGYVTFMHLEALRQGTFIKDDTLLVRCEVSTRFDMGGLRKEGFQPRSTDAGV
Test: SPR; BIACORE X100, single cycle kinetics; GST-TRAF6 amine-coupled on a CM5 chip, GST-coated sensor as reference; neuroplastin peptide injected at 2.5, 5, 100, 200 and 400 uM; HBS-P buffer
Settings: both partners purified

Kd: 88 µM
stoichiometry N: 1
B1: neuroplastin intracellular peptide containing the TRAF6 binding motif (peptide)
chain: EKRKRPDEVPDAGPMKTNSTNNHKDKNLRQRNTN
modifications: Peptide limits are not printed (possibly in the figure or supplement). The whole cytoplasmic tail is taken by convention from the UniProt topology; it should contain the printed motif RKRPDEVPD. …
